According to patent US20060165695A1 (Kyowa Kirin, published 2006):

Assays:
[1] = target: T1, human insulin-like growth factor I (hIGF-I) (human, UniProt P05019 49-118); test: SPR (Biacore 2000), ratio of KA values
T1 construct: mature; In the ELISAs it was immobilised as a conjugate with methylated BSA; In SPR it was amine-coupled to the chip; also called human IGF-I; recombinant hIGF-I
Method: (§1) In order to analyze binding activity of the anti-hIGF antibody KM1468 to an antigen hIGF-I or hIGF-II, binding strengths of the anti-hIGF antibody KM1468, a commercially available anti-hIGF-I antibody sm1.2 and a commercially available anti-hIGF-II antibody S1F2 to hIGF-I and hIGF-II were measured in the following manner using the biosensor Biacore 2000 (manufactured by BIACORE) use of a surface plasmon resonance. HBS-EP (10 mM HEPES, 150 mM NaCl, 3 mM EDTA, 0.005% Tween 20, pH 7.4) (manufactured by BIACORE) was used for the dilution of analytes and as the reaction buffer.
(§2) The reaction was carried out at 25° C. Association rate constant Kass and dissociation constant Kdiss were calculated from the binding reaction curves at respective concentrations, and the binding constant KA (M⁻¹) of each of these antibodies was calculated. The binding constant KA is calculated by KA=Kass/Kdiss.

[2] = target: T2, human insulin-like growth factor II (hIGF-II) (human, UniProt P01344 25-91); test: SPR (Biacore 2000), ratio of KA values
T2 construct: In the ELISA it was immobilised as a conjugate with methylated BSA; In SPR it was amine-coupled to the chip; also called human IGF-II; methylated BSA-hIGF-II (immobilised conjugate)
T2 sequence (P01344 25-91 limits assumed): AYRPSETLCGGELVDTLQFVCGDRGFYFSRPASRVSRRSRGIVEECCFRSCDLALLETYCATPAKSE
Method: as §1, §2

[3] = target: T3, hIGF-I partial peptide p1-18 (human); test: competitive ELISA: KM1468 (4.0 µg/ml) on immobilised methylated BSA-hIGF-I, peptide as competitor
T3 peptide: GPETLSGAELVDALQFVC

[4] = target: T4, hIGF-I partial peptide p14-30 (human); test: as above
T4 peptide: CLQFVAGDRGFYFNKPTG

[5] = target: T5, hIGF-I partial peptide p24-35 (human); test: as above
T5 peptide: CYFNKPTGYGSSS

[6] = target: T6, hIGF-I partial peptide p29-41 (human); test: as above
T6 peptide: CTGYGSSSRRAPQT

[7] = target: T7, hIGF-I partial peptide p36-47 (human); test: as above
T7 peptide: RRAPQTGIVDEC

[8] = target: T8, hIGF-I partial peptide p41-56 (human); test: as above
T8 peptide: CTGIVDEAAFRSADLRR

[9] = target: T9, hIGF-I partial peptide p52-70 (human); test: as above
T9 peptide: CDLRRLEMYAAPLKPAKSA

[10] = target: T10, hIGF-I partial peptide p53-61 (human); test: as above
T10 peptide: DLRRLEMYC

[11] = target: T11, hIGF-I partial peptide p61-70 (human); test: as above
T11 peptide: CAPLKPAKSA

[12] = target: T12, hIGF-I partial peptide p41-56C (human); test: as above
T12 peptide: CTGIVDECCFRSCDLRR

[13] = target: T1, human insulin-like growth factor I …; test: SPR (Biacore 2000), hIGF-I amine-coupled to CM-5 chip, antibody as analyte, 25 °C; KA=Kass/Kdiss
Method: as §1, §2

[14] = target: T2, human insulin-like growth factor II …; test: SPR (Biacore 2000), hIGF-II amine-coupled to CM-5 chip, antibody as analyte, 25 °C; KA=Kass/Kdiss
Method: as §1, §2

[15] = target: T13, human insulin (manufactured by Wako Pure Chemical Industries) (human, UniProt P01308 25-54; P01308 90-110); test: competitive ELISA: KM1468 (0.6 µg/ml) on immobilised methylated BSA-hIGF-I or methylated BSA-hIGF-II, insulin as competitor
T13 construct: Bought reagent
T13 sequence (P01308 25-54 limits assumed, chain 1 of 2): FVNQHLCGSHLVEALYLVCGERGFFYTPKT
T13 sequence (P01308 90-110 limits assumed, chain 2 of 2): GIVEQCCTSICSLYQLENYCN
Source text: Cross reactivity of the purified anti-hIGF antibody KM1468 with hIGF-II and human insulin was examined by the competitive ELISA shown below. As the antigens, hIGF-I (manufactured by Pepro Tech), hIGF-II (manufactured by Pepro Tech) and human insulin (manufactured Wako Pure Chemical Industries) were used.
The methylated BSA-hIGF-I antigen prepared in Example 1(1) or a methylated BSA-hIGF-II antigen prepared in the same manner as in Example 1(1) was immobilized on a plate in accordance with the method shown in Example 1(4), at a concentration of 0.1 μg/ml in the case of the methylated BSA-hIGF-I antigen, or at a concentration of 1.0 μg/ml in the case of the methylated BSA-hIGF-II antigen, KM1468 diluted to 0.6 μg/ml was dispensed therein in 25 μl/well portions, and then each of 4-fold serial dilutions of hIGF-I, hIGF-II or human insulin prepared by starting from 20 μg/ml was dispensed in 25 μl/well portions, mixed and allowed to react at room temperature for 1 hour. After the reaction and subsequent washing with Tween-PBS, 1,000 times-diluted peroxidase-labeled rabbit anti-rat Ig antibody (manufactured by DAKO) was added in 50 μl/well portions as the secondary antibody in the case of the anti-hIGF antibody KM1468. […] The results are represented by relative values (%) wherein OD415 when an antibody alone is added is defined as 100.

T1 sequence (P05019 49-118): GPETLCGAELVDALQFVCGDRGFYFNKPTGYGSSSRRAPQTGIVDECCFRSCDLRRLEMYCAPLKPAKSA

B1: anti-hIGF rat monoclonal antibody KM1468 (antibody, V domains shown)
VH: EVHLVESGGGLVQPGRSLKLSCAASGFTFSNYYMTWVRQAPTKGLEWVAYISSGGGSTYYRDSVKGRFTISRDNAKSTLYLQMDSLRSEDTATYYCTTEDYGYWFAYWGQGTLVTVSS
VL: EIVLTQSPTTMAASPGEKVTITCRASSSVSYMHWFQQKSGTSPKPWIYGTSKLASGVPDRFSGSGSGTSYSLTISSMEAEDAATYYCLQRSSYPPTFGAGTKLELKR
notes: Rat IgG2b with kappa L chain, purified from ascites; The ranges 20-137 and 23-129 are counted from the first residue of the entry; also called anti-hIGF antibody KM1468; anti-hIGF rat antibody KM1468
In the case of B1, the “fold KA versus S1F2” value [1] is reported as about 18 fold, the “fold KA versus sm1.2” value [1] is reported as about 42 fold and the “fold KA versus S1F2” value [2] is reported as about 3.6 fold. For the same binder, the “fold KA versus sm1.2” value [2] was about 120 fold, the binding result [3] was “no binding” and the binding result [4] was “no binding”. B1: no binding [5]; no binding [6]; no binding [7]. B1: no binding [8]; no binding [9]; no binding [10]. The binding result [11] was “no binding”, the binding result [12] was “no binding” and the Ka [13] was 7.86e+09 M⁻¹. The Ka [14] was 8.63e+09 M⁻¹ and the binding result [15] was “no binding”.
